Laboratory results from patent US6468762B1, “High specificity homocysteinases” (AntiCancer, Inc., priority 1997, dated 2002).

How the values were obtained:
[1] = test system: Trichomonas vaginalis homocysteinase, isolated native enzyme (may reflect expression from more than one gene); conditions: native enzyme isolated from T. vaginalis; Lockwood et al., 1991; cited from earlier work
[2] = from the relative activity scale
Text: Homocysteinase enzymes of suitable catalytic activity for use as starting materials to obtain mutated forms can be derived from other Pseudomonas species, or from other bacteria, using routine screening procedures and assays that are recognized in the art.

[3] = test system: CSCC[C@H](N)C(=O)O; experiment: Km of the novel homocysteinase expressed from the pAC2-1 clone (α-ketobutyrate/pyruvate assay, MBTH); type: biochemical, Trichomonas vaginalis; conditions: other: 37° C., pH 8.0, 100 mM phosphate buffer, 10 μM pyridoxal phosphate, 10 minutes, DL-homocysteine, L-cysteine or L-methionine separately, 10 μM to 1.6 mM
Text: (§1) In FIG. 1 (panels A and B) are depicted the amino acid sequences of two Trichomonas vaginalis homocysteinases, the first derived from a novel clone (pAC2-1) of the present invention, and the second, the enzyme derived from the known mgl1 gene (see also SEQ ID NOS: 10 and 12 for comparison of amino acids; SEQ ID NOS: 9 and 11 for comparison of encoding DNA's). It will be seen that pAC2-1 is characterized by the existence of three differences (mutations), compared to mgl1:
(§2) Phe to Leu at amino acid position 47,
(§3) Asp to Glu at amino acid position 172, and
(§4) Ser to Tyr at amino acid position 308.
(§5) In the first step of this assay, 1 ml volumes of 100 mM phosphate buffer pH 8.0, containing also 10 μM pyridoxal phosphate, […], respectively, were incubated, for 10 min at 37° C., with a sufficient sample (typically 50 μl) of crude cell extract (cells were sonicated, and the supernatant was recovered following centrifugation) to provide about 1-100 units of homocysteinase (“HCYase”) enzyme. The reactions were stopped by adding 0.1 ml of 50% TCA. The suspensions were then centrifuged using an Eppendorf centrifuge at 13 k rpm for 2 minutes. 0.5 ml samples of the supernatants were then added to 0.5 ml of 0.05% 3-methyl-2-benzothiazolinone hydrazone (“MBTH”) in 0.8 ml of 1M sodium acetate, pH 5.2 and incubated at 50° C. for 30 min. The amount of reaction products was determined for each sample, by spectrophotometry at OD320. The amount of protein was determined with a Bio-Rad 500-0006 kit (Bio-Rad, Richmond, Calif.) with bovine serum albumin as a standard. The enzyme specific activity was calculated as units/mg protein, with one unit of enzyme defined as the amount that catalyzes the formation of 1 μmol of α-ketobutyrate from homocysteine per minute. […]
(§6) The reaction was stopped by adding 0.1 ml of 50% TCA. […] The amount of reaction product was then determined by spectrophotometry at OD320. The Kcat (turnover number) values reported in FIG. 5, were determined from the calculation of Vmax values using standard kinetic expressions and plots.

[4] = test system: N[C@@H](CS)C(=O)O; experiment: as above; type: biochemical, Trichomonas vaginalis; conditions: other: 37° C., pH 8.0, 100 mM phosphate buffer, 10 μM pyridoxal phosphate, 10 minutes, DL-homocysteine, L-cysteine or L-methionine separately, 10 μM to 1.6 mM
Text: as §1, §2, §3, §4, §5, §6

[5] = test system: N[C@@H](CCS)C(=O)O; experiment: as above; type: biochemical, Trichomonas vaginalis; conditions: other: 37° C., pH 8.0, 100 mM phosphate buffer, 10 μM pyridoxal phosphate, 10 minutes, DL-homocysteine, L-cysteine or L-methionine separately, 10 μM to 1.6 mM
Text: as §1, §2, §3, §4, §5, §6

[6] = Homocysteinase specific activity, α-ketobutyrate assay; type: biochemical
Procedure: In the first step of this assay, 1 ml volumes of 100 mM phosphate buffer pH 8.0, containing also 10 μM pyridoxal phosphate, and different concentrations (25 μM-25 mM) of DL-homocysteine, or L-methionine, L-cysteine, respectively, were incubated, for 10 min at 37° C., with a sufficient sample (typically 50 μl) of crude cell extract (cells were sonicated, and the supernatant was recovered following centrifugation) to provide about 1-100 units of homocysteinase (“HCYase”) enzyme. The reactions were stopped by adding 0.1 ml of 50% TCA. The suspensions were then centrifuged using an Eppendorf centrifuge at 13 k rpm for 2 minutes. 0.5 ml samples of the supernatants were then added to 0.5 ml of 0.05% 3-methyl-2-benzothiazolinone hydrazone (“MBTH”) in 0.8 ml of 1M sodium acetate, pH 5.2 and incubated at 50° C. for 30 min. The amount of reaction products was determined for each sample, by spectrophotometry at OD320. The amount of protein was determined with a Bio-Rad 500-0006 kit (Bio-Rad, Richmond, Calif.) with bovine serum albumin as a standard. The enzyme specific activity was calculated as units/mg protein, with one unit of enzyme defined as the amount that catalyzes the formation of 1 μmol of α-ketobutyrate from homocysteine per minute. The assay procedure can, of course, also be used with purified homocysteinase samples that provide, for example, 1-100 units of enzyme per assay test.
Alternatively, an additional two stage strategy may be used. In the first stage, the partitioning material was DEAE Sepharose® FF, and loading and pre-washing were conducted with 20 mM sodium phosphate buffer, pH 7.2. Elution of the protein was accomplished using a linear gradient (8 ml/min) from 20 mM sodium phosphate buffer, pH 7.2 (solution A) to 20 mM sodium phosphate buffer, pH 7.2, 500 mM NaCl (solution B). In the second stage, the partitioning material was phenyl Sepharose® 6-FF, and loading and pre-washing were conducted with 0.6 M NH4SO4 in 20 mM sodium phosphate buffer, pH 7.2. Elution of the protein was accomplished using a linear gradient (5 ml/min) from 0.6 M NH4SO4, 20 mM sodium phosphate buffer, pH 7.2 (solution A) to 20 mM sodium phosphate buffer, pH 7.2, (solution B). The following purification results were obtained for this alternate procedure. The above-described cell-lysate contained 8400 units of homocysteinase at a specific activity (units/mg) of 5.2. Following completion of pre-column procedures, 6,300 units were recovered at a specific activity of 64 (about 75% yield). Upon completion of the DEAE Sepharose®-FF step (first column), 5,040 units were recovered at a specific activity of 172 (60% yield), while after the phenyl Sepharose® 6-FF step (second column), 4,200 units remained at a specific activity of 300 (50% yield).
An activity assay for the keto product of the α, γ or α,β-elimination (α-keto butryate for homocysteine) was carried out in a 1.5 ml Eppindorf tube using 1-ml. of 50 mM phosphate buffer pH 8.0 (also containing 10 μM pyridoxal phosphate and 20 mM homocysteine) for 10 minutes at 37° C., with varying amounts of enzyme. The reaction was stopped by adding 0.5 ml of 4.5% TCA. […]
The amount of reaction product was determined by spectrophotometry at OD335. […] The amount of protein was determined with the Lowry Reagent Kit (Sigma) with bovine serum albumin as a standard. The specific activity was calculated as units/mg protein, with one unit of enzyme defined as the amount that catalyzed the formation of 1 μmol of α-ketobutyrate/minute.

[7] = Single enzyme assay detecting product hydrogen sulfide: contribution of homocysteine versus cysteine; type: biochemical
Text: According to the preferred practice of the invention, homocysteinases are provided wherein the relative activities of said enzymes toward homocysteine versus cysteine are such that, by detecting product hydrogen sulfide, the apparent concentration of homocysteine measured in a patient sample (which reflects also a contribution from cysteine) is less that about 150%, preferably less than about 110%, and most preferably less than about 102%, of the actual value thereof. In a further preferred example of the invention, for example using the novel Trichomonas homocysteinase expressed from pAC2-1, the apparent concentration of homocysteine measured in a single enzyme assay reflects no more than about a 1% false contribution from cysteine.
In general, useful diagnostic information can be obtained when the amount of produced hydrogen sulfide attributable to homocysteine is about one half of the total. […] Preferably, however the fraction of total hydrogen sulfide detected in an assay that is attributable to homocysteine is at least 90%, preferably 95%, more preferably 98%, and most preferably 99% or greater. The 99% level is readily obtained according to the practice of the invention, for example using the homocysteinase represented by SEQ ID NO: 10. […]

[8] = Relative activity toward homocysteine versus cysteine or methionine; type: biochemical; conditions: apparent activity
Procedure: In the first step of this assay, 1 ml volumes of 100 mM phosphate buffer pH 8.0, containing also 10 μM pyridoxal phosphate, and different concentrations (25 μM-25 mM) of DL-homocysteine, or L-methionine, L-cysteine, respectively, were incubated, for 10 min at 37° C., with a sufficient sample (typically 50 μl) of crude cell extract (cells were sonicated, and the supernatant was recovered following centrifugation) to provide about 1-100 units of homocysteinase (“HCYase”) enzyme. The reactions were stopped by adding 0.1 ml of 50% TCA. The suspensions were then centrifuged using an Eppendorf centrifuge at 13 k rpm for 2 minutes. 0.5 ml samples of the supernatants were then added to 0.5 ml of 0.05% 3-methyl-2-benzothiazolinone hydrazone (“MBTH”) in 0.8 ml of 1M sodium acetate, pH 5.2 and incubated at 50° C. for 30 min. The amount of reaction products was determined for each sample, by spectrophotometry at OD320. The amount of protein was determined with a Bio-Rad 500-0006 kit (Bio-Rad, Richmond, Calif.) with bovine serum albumin as a standard. The enzyme specific activity was calculated as units/mg protein, with one unit of enzyme defined as the amount that catalyzes the formation of 1 μmol of α-ketobutyrate from homocysteine per minute. The assay procedure can, of course, also be used with purified homocysteinase samples that provide, for example, 1-100 units of enzyme per assay test. […]

For `N[C@@H](CCS)C(=O)O` (racemic) [homocysteine], the Km [1] is listed as about 0.5 mM.

For “L-methionine-alpha-deamino-gamma-mercaptomethane lyase [P. putida enzyme]”, the “apparent preference for homocysteine over cysteine” value [2] was about 10 fold.

“Trichomonas vaginalis homocysteinase, pAC2-1 clone (recombinant in E. coli BL21 (DE3)), SEQ ID NO: 10; versus mgl1 (SEQ ID NO: 12): Phe47 to Leu, Asp172 to Glu, Ser308 to Tyr; N-terminal 6x His (Trichomonas vaginalis; D172E/F47L/S308Y)” gave a Km [3] of 3.1 mM, a Km [4] of 3.45 mM and a Km [5] of 4.8 mM.

B1: SEQ ID NO: 10: recombinant Trichomonas vaginalis homocysteinase from E. coli clone pAC2-1 (ATCC 98549), with 6 N-terminal histidine residues (protein)
chain: MHHHHHHMSHERMTPATACIHANPQKDQFGAAIPPIYQTSTFVFDNCQQGGNRLAGQESGYIYTRLGNPTVSNLEGKIAFLEKTEACVATSSGMGAIAATVLTILKAGDHLISDECLYGCTHALFEHALTKFGIQVDFINTAIPGEVKKHMKPNTKIVYFETPANPTLKIIDMERVCKEAHSQEGVLVIADNTFCSPMITNPVDFGVDVVVHSATKYINGHTDVVAGLICGKADLLQQIRMVGIKDITGSVISPHDAWLITRGLSTLNIRMKAESENAMKVAEYLKSHPAVEKVYYPGFEDHEGHDIAKKQMRMYGSMITFILKSGFEGAKKLLDNLKLITLAVSLGGCESLIQHPASMTHAVVPKEEREAAGITDGMIRLSVGIEDADELIADFKQGLDALL
modifications: N-terminal His6 tag
notes: recombinant Trichomonas vaginalis homocysteinase from E. coli clone pAC2-1 (ATCC 98549), with 6 N-terminal histidine residues
B1 gave a specific activity ([6]; after DEAE Sepharose-FF step) of 172 units/mg, a specific activity ([6]; after phenyl Sepharose 6-FF step) of 300 units/mg and a specific activity ([6]; after pre-column procedures) of 64 units/mg. The specific activity ([6]; cell-lysate) was 5.2 units/mg, the specific activity ([6]; commercial product HYase from AntiCancer, Inc) was 40 units/mg and the “fraction of total hydrogen sulfide detected that is attributable to homocysteine” value ([7]; single enzyme assay of patient samples) was at least 99%. The “false contribution from cysteine to apparent homocysteine concentration” value ([7]; single enzyme assay, product hydrogen sulfide detected) was at most 1% and the “activity for homocysteine relative to cysteine and methionine” value [8] was “at least 100 fold”.
